Measured values taken from paper PMC12283126, “The Pseudomonas aeruginosa Type VI secretion system toxin Tse8 evolved from a novel N-carbamoylputrescine amidohydrolase” (Biochemical Journal, 2025).

Experiments:
Experiment in all cases: ammonia release, indophenol blue, OD640; Michaelis-Menten fit
Settings in all cases: 50 mM MES-NaOH pH 7.0, 1 mM DTT, 40 °C, 30 min, 10 nM enzyme
[1] = substrate: NCCCCNC(N)=O; type: biochemical, Shewanella oneidensis
Source text: ammonia release, indophenol blue, OD640; Michaelis-Menten fit on Shewanella oneidensis AguY (SoAguY)

[2] = substrate: NCCCCNC(N)=O; type: biochemical, Microterricola gilva
Source text: ammonia release, indophenol blue, OD640; Michaelis-Menten fit on Microterricola gilva AguY (MgAguY)

[3] = substrate: NCCCCNC(N)=O; type: biochemical, Pseudomonas aeruginosa
Source text: ammonia release, indophenol blue, OD640; Michaelis-Menten fit on P. aeruginosa NCPAH/AguB (PaAguB)

B1: Shewanella oneidensis AguY (SoAguY) (Shewanella oneidensis MR-1) (protein)
chain: MFEVTEVSIAELRAALESGRTTVVELVKSYLARVAAYDGPATETKLNALVVHNPDALKEAEASDARRARGETLSPLDGIPYTAKDSYLVKGLTAASGSPAFKDLVAQYDAFAVERLRAAGAICLGKTNMPPMANGGMQRGHYGRAESPYNAEYLTAPFASGSSNGAGTGTAASYSAFGLAEETWSSGRGPASNNGLCAYTPSRGVISVRGNWPLTPTMDVVVPYTRTMADMLEVLDVIVADDPITRGDLWRLQPWVQIPKASTVRPESYLALAASADTLKGKRFGVPRMYINKDELAGTSENPGIGGPTGQRIHTRQSVIDLWEAARKALEAAGAEVIEVDFPLVSNCEGDRPGAPTVFNRGIVTPQFLHDELWELSGWAFDEFLRANNDPKLNKLEDVVGHLIFPHDLCTLPNREGDLAAGMEEYVNMAKRGLKSFDQIDSIPDGLRGLEKTRKLDLEDWMDGLKLDAVLFPTVADVGPADAHVNPASADIAWSNGVWVANGNLAIRHLGVPTVTVPMGVMADIGMPVGLTFAGRAYDDNNLLKFAGAFESTGNRRIIPPRTPKLGQ
notes: full length, 568 aa, 60,996 Da; purified recombinant, codon-optimised synthetic gene, expressed in E. coli
How did the Km [1] turn out when B1 was run?
Its Km is 740 ± 130 µM.

What about the kcat [1] of the same protein?
Its kcat is 130 ± 4.5 s⁻¹.

What about the kcat/Km [1] of the same protein?
Its kcat/Km is 179000 ± 28600 M⁻¹ s⁻¹.

B2: Microterricola gilva AguY (MgAguY) (Microterricola gilva) (protein)
chain: MTSPTVGKGGIVEAGIDELAAALAAGETSAVALLDAYLARIRAFDAPGTATALNAYVVMNPDARADAEASDARRARGESRGPLDGIPYSAKDSYLAAGLTAAAGSPAFTALIAQQDAFTIERLRTAGAVLIGLTNMPPMANGGMQRGAYGRAESPYNAAWLTAAFGSGSSNGSGTATAASMCAFGLGEETWSSGRAPASNNALCAYTPSRGIISMRGNWPLVPTMDVVVPHTRTMADLLRVLDVIVAEDGDTRGDFWRSQPWLEIPRVDEHRPASYPSLAPTDLAAAQATLRGTRLGVPRMYINGDQDAGTGEPGGIGGPTGQRIETRASVIELWEAARRDLEAAGATVVEVDFPLVSNYEGDRAGAPTITNRGLVSPEFLHTELNDLAAWAWNDFLEMNGDPRLSSLAAVDGERIFPAPPGSLPDRYQGFDDDIADLPRIAAERHWASVEEIEELADGIRGLEHTRAIDFDAWMASNRLDAVVFPAVADVGPADMDVNEASADAGWRNGVWVANGNLVIRHFGIPTVTVPMGLMRDIRMPVGLTFAGLPYDDVALLRLAAAFERTAERRVAPPLSAPPARAHR
notes: full length, 584 aa, 61,738 Da; purified recombinant, codon-optimised synthetic gene, expressed in E. coli; genome has a second AguY paralog
B2 was tested. Which Km [2] did it give?
Its Km is 70 ± 300 µM.

What about the kcat [2] of the same protein?
The kcat was 39 ± 1.5 s⁻¹.

What about the kcat/Km [2] of the same protein?
The kcat/Km was 642000 ± 251000 M⁻¹ s⁻¹.

B3: P. aeruginosa NCPAH/AguB (PaAguB) (Pseudomonas aeruginosa PAO1) (protein)
chain: MTRNVTVAATQMACSWDRPANIARAEKLVRQAAARGAQIILIQELFETPYFCQKPNPDYLQLATTVEENAAIAHFQALARELQVVLPISFFERAGRARFNSIAVIDADGGNLGVYRKSHIPDGPGYHEKYYFNPGDTGFKVWQTRYARIGVGICWDQWFPESARSMALLGAELLFYPTAIGSEPHDASISSRDHWQRVQQGHAGANLMPLVASNRIGREEQDGYDITFYGSSFIADPFGEKVEELNRTEEGILVHTFDLDALERTRSAWGVFRDRRPNLYGPLKTLDGSLES
notes: full length, 292 aa, 32,780 Da; purified recombinant, codon-optimised synthetic gene, expressed in E. coli
How did the Km [3] turn out when B3 was run?
The Km was 660 ± 110 µM.

What about the kcat [3] of the same protein?
Its kcat is 54.1 ± 3 s⁻¹.

And the kcat/Km [3]?
The kcat/Km was 82500 ± 8800 M⁻¹ s⁻¹.
